Reference: patent publication US20210371491A1 (ALBERT LUDWIGS UNIVERSITAET FREIBURG, published 2021)

Molecular target: prostate specific membrane antigen (PSMA) (UniProt Q04609 1-750, limits assumed)
Test: cell-based or functional assay

prostate specific membrane antigen (PSMA), sequence (Q04609 whole entry, form in doubt): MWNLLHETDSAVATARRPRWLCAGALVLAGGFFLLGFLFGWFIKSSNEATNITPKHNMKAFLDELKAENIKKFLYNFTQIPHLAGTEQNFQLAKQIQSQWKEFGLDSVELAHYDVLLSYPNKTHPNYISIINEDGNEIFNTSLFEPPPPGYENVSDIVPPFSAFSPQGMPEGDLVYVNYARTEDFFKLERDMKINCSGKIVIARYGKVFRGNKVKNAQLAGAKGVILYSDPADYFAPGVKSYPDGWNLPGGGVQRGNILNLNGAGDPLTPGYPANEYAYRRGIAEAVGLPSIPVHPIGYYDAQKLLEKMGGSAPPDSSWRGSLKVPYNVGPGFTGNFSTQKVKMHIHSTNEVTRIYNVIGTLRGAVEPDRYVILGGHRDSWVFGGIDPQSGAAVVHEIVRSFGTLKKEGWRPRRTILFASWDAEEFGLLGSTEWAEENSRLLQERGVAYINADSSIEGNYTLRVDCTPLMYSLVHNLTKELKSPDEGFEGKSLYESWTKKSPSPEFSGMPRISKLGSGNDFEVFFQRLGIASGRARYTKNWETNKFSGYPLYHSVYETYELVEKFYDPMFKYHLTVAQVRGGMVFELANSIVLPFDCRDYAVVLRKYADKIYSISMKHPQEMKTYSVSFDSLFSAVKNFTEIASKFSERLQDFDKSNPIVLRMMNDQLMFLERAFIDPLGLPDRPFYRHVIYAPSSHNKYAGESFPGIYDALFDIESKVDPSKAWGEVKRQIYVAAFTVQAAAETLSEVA

B1: CAR28, anti-PSMA CAR with CD28 co-stimulatory domain (scFv D7) (other)
chain: MDFQVQIFSFLLISASVIMSRMAQVQLQQSGAELVEPGASVKLSCKASGYTFTYFDINWLRQRPEQGLEWIGGISPGDGNTNYNENFKGKATLTIDKSSTTAYIQLSRLTSEDSAVYFCARDGNFPYYAMDSWGQGTSVTVSSAKTTPKLGGGGSGGGGSGGGGSARVDIELTQSPLSLPVILGDQASISCRSSQSLVHSNGNTYLHWFLQKPGQSPKLLIYTVSNRFSGVPDRFSGSGSGTDFTLKISRVEAEDLGVYFCSQSTHVPTFGGGTKLEIKRSDPAEPKSPDKTHTCPPCPAPPVAGPSVFLFPPKPKDTLMIARTPEVTCVVVDVSHEDPEVKFNWYVDGVEVHNAKTKPREEQYNSTYRVVSVLTVLHQDWLNGKEYKCKVSNKALPAPIEKTISKAKGQPREPQVYTLPPSRDELTKNQVSLTCLVKGFYPSDIAVEWESNGQPENNYKTTPPVLDSDGSFFLYSKLTVDKSRWQQGNVFSCSVMHEALHNHYTQKSLSLSPGKKDPKFWVLVVVGGVLACYSLLVTVAFIIFWVRSKRSRLLHSDYMNMTPRRPGPTRKHYQAYAAARDFAAYRSLRVKFSRSADAPAYQQGQNQLYNELNLGRREEYDVLDKRRGRDPEMGGKPRRKNPQEGLYNELQKDKMAEAYSEIGMKGERRRGKGHDGLYQGLSTATKDTYDALHMQALPPR
  cytotoxicity (XTT assay), PSMA expressing cells eliminated at E:T ratio 1:1: ≤ 90%
  cytotoxicity (XTT assay), target cells eliminated at E:T ratio 1:4, 48 h co-culture with C4-2 cells: ~90%

B2: CAR41, anti-PSMA CAR with 4-1BB co-stimulatory domain (scFv D7) (other)
chain: MDFQVQIFSFLLISASVIMSRMAQVQLQQSGAELVEPGASVKLSCKASGYTFTYFDINWLRQRPEQGLEWIGGISPGDGNTNYNENFKGKATLTIDKSSTTAYIQLSRLTSEDSAVYFCARDGNFPYYAMDSWGQGTSVTVSSAKTTPKLGGGGSGGGGSGGGGSARVDIELTQSPLSLPVILGDQASISCRSSQSLVHSNGNTYLHWFLQKPGQSPKLLIYTVSNRFSGVPDRFSGSGSGTDFTLKISRVEAEDLGVYFCSQSTHVPTFGGGTKLEIKRAAALPAEPKSPDKTHTCPPCPAPPVAGPSVFLFPPKPKDTLMIARTPEVTCVVVDVSHEDPEVKFNWYVDGVEVHNAKTKPREEQYNSTYRVVSVLTVLHQDWLNGKEYKCKVSNKALPAPIEKTISKAKGQPREPQVYTLPPSRDELTKNQVSLTCLVKGFYPSDIAVEWESNGQPENNYKTTPPVLDSDGSFFLYSKLTVDKSRWQQGNVFSCSVMHEALHNHYTQKSLSSLSPGKKIYIWAPLAGTCGVLLLSLVITLYCKRGRKKLLYIFKQPFMRPVQTTQEEDGCSCRFPEEEEGGCELLRVKFSRSADAPAYQQGQNQLYNELNLGRREEYDVLDKRRGRDPEMGGKPRRKNPQEGLYNELQKDKMAEAYSEIGMKGERRRGKGHDGLYQGLSTATKDTYDALHMQALPPR
  cytotoxicity (XTT assay), PSMA expressing cells eliminated at E:T ratio 1:1: ≤ 90%
